Data taken from paper PMC2199173.

Molecular target: purified soluble human FasL (AL-1) (human)
Assay: SEC

stoichiometry N: 3
Substance: purified soluble human FasL (AL-1) (ligand)
